Assay results reported in the DeepSol protein solubility set.

Assay: soluble on expression in E. coli; label from the status in PepcDB or PDB records

Sequence | soluble on expression in E. coli
MENIFLKRLEFKAFEEDSVFSKIEGLNKFNSLNFKKPITFFSGENGTGKSTLLEAIAVNWGFNPEGGSINFNFSTKDTHLDLHNYLTVGKSVKRATDGFFLRAESFYNVATYAENIDLDFSEYGDKSLHHQSHGESFLNLVNHRFRGNGLYLLDEPEAALSPQRQLALMISIKKLIDEGSQFIIVSHSPILLAMPDSQIISFDKDSPLEITYEESMPYEITSLFLNNKNRILSHLFAELEHHHHHH | soluble
MENSEKLANSKEVIAYIAERFPKCFILEGEAKPLKIGIFQDLAERLSDDPKVSKTQLRAGLRQYTSSWRYLHGVKPGASRVDLDGNPCGELEEEHIEHAKATLEESKAKVATRRKEQAKKAREEAKAKKTARAATPPKRRPQPAAKKVEQPVETRALNADEITVGNNVSVNMGKGNMPATIVEINKDDVRIRLSNGLQMVVKAENLRS | not soluble
MEPLKHECGIAMVRLRKPLSYYHDKYGTWMYGLNKLYLLMEKQHNRGQEGAGLAVVKLNSRPGEEYLFRERALGANAISEIFDSVHKDFQAYSREELGDAEFAASQIPYAGECYMGHLRYSTTGKSGLTFVHPMIRRSNWRAKCLSICGNFNLTNVDGIFDEITSVGQHPRNMSDTHILLEQIGHRLDREVERLFRIGKEQNLKGMDITHFIEERIDLSNVLKKCSPFWDGGYVMCGLTGSGESYAVRDPWGIRPAFYYIDDEIVVTASERPVIQTVMNLSAEAVRELMPGEAIFVNSKGEPRIERILETKNYQACSFERIYFSRGSDQDIYRERKALGYLLSERILRAIDYDISHTVFSFIPNTAEVAYYGMLEGIDHYLDECKIREIRENPNMSEAKLREILGRKVRSEKVAIKDIKLRTFITEGNSRNDLAAHVYDITYGTVQAGVDNLVVIDDSIVRGTTLRQSIIGIMDRLQPKKIVIVSSSPQIRYPDYYGIDMRKMREFVAFRSAVALLQERGMEQVLHDAYAKALELRKLSSGQEVENVVKTIYKPFTAEEISAKMVELLKPEGVRAKVEIVYQSLEGLHQAIPNHPGDWYFSGDYPTPGGAHLVNEAFISYMEEDYGK | not soluble
MEPVLFYGVPHGCSFGSIVALEWLGRPYRLCRIEMPLDTGERTYVRLNPARQTPTLLLEDGRALSESLAILQHLAARDLCRKLGYPQGSAEFDELNFALALLHTECHSAWGALFYLEDADATTTARALTRAARAYGRIDKLLGDRKWLAGEGPSVADAYLAGTARWGRELGYFDLQHDFPRLHRHLEKLEQDPAVRFAHAIEDRLPAQSCGEFRGEVTLAEVASRLLA | not soluble
MEPWLVGIDLGGTTIKMAFVTTEGDIVHKWEIPTNTANRGEHIVADIARSLEKTLGQLGGAKERLLAAGIGAPGPVEEETGMLYETVNIGWTNYPLKQRLEEATGLPVSVDNDANLAALGEMWKGAGGGARHLLFVTLGTGVGGGVIANGAIVRGINGAGGEIGHMTMIPDGGARCNCGKTGCLETIASATGIVRIAKEKLTADERPSELRNGDVTAKAVFDAAKAGDALALEVVDEATYYLGWALANAANVTNPEKIVIGGGVSKAGDMLVERVAAHFRRFAFPRVAAGAKLVLATLGNDAGVIGAAWLAKELVGA | not soluble
MEQAMLKTLALLVLGMHYWCATGFPVYDYDPSSLQEALSASVAKVNSQSLSPYLFRATRSSLKRVNVLDEDTLVMNLEFSVQETTCLRDSGDPSTCAFQRGYSVPTAACRSTVQMSKGQVKDVWAHCRWASSSESNSSEEMMFGDMARSHRRRNDYLLGFLSDESRSEQFRDRSLEIMRRGQPPAHRRFLNLHRRARVNSGFE | soluble
MEQIGLIGYGSMADMIARQLLKHEQIKENELFIETRTKGERLRALMSDYPNVSADPLENWANTCQLILICVPPLHVIETMRRLYPYVNRNTHIVSIAAGVPLRLLEAETEAGISRVIPAITSEAEAGISLVVHSEALAAEKKERLNELLSVFSRVREIKESNLDVASNLTSSAPGFIAAIFEELALSAVRNSSLSKEEAFDFLIHSLYGTGKMLIEKNMSFEETLERVATKGGITGEGAEVIHASVPDVFDEVFERTLRKYELLTEQVGKQTLEHHHHHH | soluble
MEQIHGGDSNSGGGGGGSSRNDEISVTRASRFDALPEDCISKVISHTSPRDACVVASVSKSVKSAAQSDLVWEMFLPSEYSSLVLQSANHLSKKEIFLSLADNSVLVENGKKSFWVEKASGKKCYMLSAMELTIIWGDSPAYWKWITVPESKFEKVAELRNVCWFEVRGKISCGMLSKGTHYSVYVVFKTANGRSYGFDLVPVEAGVGFVGKVATKKSVYFESGNADSRSATSHYSGISEEEEEVEGERERGMNVVGPKERVDGWSEVELGKFYINNGGCGDDGSDEIEISIMETQNGNWKSGLIIQGIEIRPERSN | soluble
MEQQNTLNDIKQTIVFNASIQKVWSVVSTAEGIASWFMPNDFVLEVGHEFHVQSPFGPSPCKVLEIDEPNHLSFSWDTDGWVVSFDLKDLGDNKTEFTLIHGGWKHPDEILPKANAKSSIIRDRMSGGWVAIVNEKLKKVVEG | soluble
MEQTLRVSVFGATGYTGIELLRSLLTHPHFEVKNLISQSYKGKKVREVLPFFSNTYISEIEFLEEPVEDYELAFLCLPHEVSYEIVPKLLSQGKKVVDLSGAYRIKSPKAYEEFYGFKHEREDILQRAVYGLPEVFREEIKNSDLVANPGCYPTATLLAIYPFLKERVGIESVIVHALSGVSGAGRKPKQQFHFPEMTENFFNYAVEKHRHTPEMEDVIRRVYGREVKVRFTPTVVPTSRGMISTVYLKSEKLNVKELFKEVYEDEIFVKVVDEPPQTKWVLGTNYCFIYPHYDERTGYYVIISAIDNLGKGASLQAVQNANLMFGLAEDDGLLQLPVFP | soluble
MERNKLARQIIDTCLEMTRLGLNQGTAGNVSVRYQDGMLITPTGIPYEKLTESHIVFIDGNGKHEEGKLPSSEWRFHMAAYQSRPDANAVVHNHAVHCTAVSILNRSIPAIHYMIAAAGGNSIPCAPYATFGTRELSEHVALALKNRKATLLQHHGLIACEVNLEKALWLAHEVEVLAQLYLTTLAITDPVPVLSDEEIAVVLEKFKTYGLAIEE | soluble
MERNYEESALFEHQFWLKVLTDHSQFLLDALAPKEKEDIKKATYFVETFTNLLNKVRNVNLIAFSKEAERAAKEIRTFKLSIIQKQLEGKITIHFTPTFINHMVNEVEEYITVLEFLNKGEVPPVFHELHYHLVWLTDAAGHAGSISGGLDLVEKRLKEKSEEFTKHFEQFYLKAVEMTGYLRTELHHFPALKKFTKDVSLELKLFSHFLHEVEELELSNEILSALSARMADHMAREECYYLLKLAQSSGLEMPKCNPL | not soluble
MERVTVRMARSDRRTPWGFGVTEAPDGAVLIVNVIGGSLADRAGLRNGDVVDRLEDLDNLDINAVDRLLVTAHEKIELIVTRQPSGAATRIWRPEVTENTGPGQDQTPYRVNLQHSSDTRPPQGFNNSALPFETDQRVKHMQYNSPLGIYSDKSAAEQYVQQTQGLGDNSGARAAAQRQDEPAYLRSETLRLLKEQEHGSAGGAGTTLSNHPNPSGLPVCFMCTRPILGVMARAAGKNLHGDCLSCATCGNSLRNVGHHFIEDKFYCDIHGTQRKHGGRPGMDPNIFVKSSPTAAQPVHIQDSPRAAYHPQVNTARPVSVSPAPSAGSKTVTTHYHTPKTQGILSPGQRGVPTAAFGADLSKSVTYGGGVGPGGTHYDSNRLSPAPSQYSTQSRNQSQQHYQQHVVQAPPPVPSNPPPSNEQQSQSRVQNLPDSVRSAVSPRRSGKSPRQWPPPAMPTTNRYWQIDPADALKKEKVNYGEDLVALIKEVEQSKEKEPKVKKEPKKGTRGARRASNISKEQVQQAFEEQRKRTERKEIKKLEKEIKPKPELKVEVPVEPLVVPTSKPLEEPCPEALPPPKINDGIHWTVIHSPVLRSPSPAKVTSEAAIPESNGVVKPIPSYASQPIGISKTSTPQPFRPGSQVERPHYSSVGLKDVHAPVPLPRSPQHSPQPVQSYIVRSSDANVTTSTNLQTTVTRQYTENDNKSQFLQQPHPDTIDSSTSPIPTIRLNRHTKPEPSTPLSVPTVSINDIATSPIKITEPSRPWRASVSNSATSPIKIHESRVQPVDESRGLHRHEEKAQIETSTIKIHEPSSPPPSVHKFGAVNTRAAPAPVQFMQTPRIAVKIHEPTGPSPTPPSTPSHPIKRDPKHFKKVDFSKTSPTVIPEWKDSADIVDESDILTECSREDDSISFLKAATYDGDESEMIDNNIDNKSDITSTFDIEEEEVDVVQDRERIRVVGRKGGEGGEAEKQWRQRAMELLDDDAQTERDLRIVAALNERLQGLREMEDDDRVRAIECIARHQSELEQTQTQLSTLLESAIVYLQNLRPELELTEPIDNDAKSLETVKFEPTRAEQRVNEIRKKVLEDLEHLPILGDGMDSVPPPPPERKVFPFQSYQPIAPQFPVPAAESPVTQSLHDVLDEFYSLRKPTPTQNVAQSSDTTAEDSRNFLASRLGQVMIDENKKAGGSNGSSQHHNQQGSSYTKTSFERTTTETRPQQNTGAPRAGDFRGTGHLTTTTTTQQNGGRAPFCESCKQQIRGAFVLATGKSWCPEHFVCANSSCRRRLLECGFVEEDGQKFCESCFEQHIAPRCNKCSKPIISDCLNALQKKWHPTCFTCAHCQKPFGNSAFYLEQGLPYCEQDWNALFTTKCVSCRYPIEAGDRWVEALGNAFHSNCFTCARCNHNLEGESFFAKNGQPFCRLHA | not soluble
MESALQKAAGEGMDEFIQVFTDKYKEIIGGELTADTMPLLTGEQHSLLAYQIFRDEIMFGGFCQLIQNGYGGYIFDNPFAKVMRLWGAEEFSKLVYKAKKIYDANRKDLEKERTDDEFMAMYEQYEAFDDLEEAYLDMEEQVTTLVASYVDNHLELFAKIIK | not soluble
MESDPMFIGFGYDRHPLVEGRRLVLAGVEIDAPLGSLGHSDGDVLSHAIIDALLGAGCLGDIGTWFPETKEYKDANSLDLLKETVKILEERGFSVVNVDATVVASIVKLSPYREKIVENLKSALETSRVNVKFKSGNTLGFEGEERGISAYAVCLVEEKGCTKST | not soluble
MESEKKIAHEIGGVKNDALRFGLHGVKSNIIGSHPLESSYESEKKSKEALKRTVIAHAYGTALPLKMDMDRQILSRFQRPPGPIPSSMLGLEVYTGAVDDFGFEDYLNDPRDSETFKPVDFHHGMEVRLGISKGPIYPSFM | not soluble
MESFELEDLTLWLIRDADEAEMWIDRWAVSYPVVQMSEASANGSTEAWQSALQTAFERIQGRHIAVVAHGAGAAAFLAWLYRADILTQKKLAGIILVSPRPDIFPDDAEHTFQRVRCPCRAALVVSEHGGVPHGWAQKQADLWNARLLVSPHSGSLNGMLGGWQWGMKLMQEMLLA | not soluble
MESFQNLAKKPTLKKQIIEQAFDLKCENCGRKYDYYKFDDGSEFKHGCDCEMIEYAKQSTENYHKRNRRRKAERIFKQSIMNEDLTKATFDNYNPTNEQLVYAKNLCERYANNFTLDNKQSLLIQGSFGTGKSHLSMSIVKSVKAKGYTVLYMNVPQLISTIKNTYNNQTAMTEQELAQIISDVDLMVFDDYGINMNEFATSKMFELIESRIGKHNIFTTNLDEKEMTKNKDLQRIFSRIMSNTTLIKMDGQDYRTRGLKLLEHHHHHH | soluble
MESKHKLSINQWALEDRPREKMMEKGAAALSDAELLAILIGSGNTEESAVELMRRLLLSCDNNLNSLAKWEVCDYSRFKGMGPAKSITVMAALELGKRRKLQNIQERPRISCSRDIYDIFQPVMCDLEQEEFWVLLLNQATRLIDKVRISTGGIDGTYTDVRTILREALLQRATQIAVVHNHPSGNIQPSQPDRTLTEHIRRAADTMNIRLIDHVIVCEDKFYSFADEGLL | not soluble
MESKIPAIEKHRDAYVKIRIIESLDELALGLKLLKEGFSRNSANKVFQSWKAIISALTVINLEKMPRNEKEKEWYYKSGFLAPTTGLKGISQRLEELGYKVNSLTSVALELHRYAYNGLYKGASDYYEREEAINDIIYLSKEIMKVIKEFFKEYWDEEIEEHYNLAEKELMKLEHHHHHH | not soluble
MESNFIDWHPADIIAGLRKKGTSMAAESRRNGLSSSTLANALSRPWPKGEMIIAKALGTDPWVIWPSRYHDPQTHEFIDRTQLMRSYTKPKK | soluble
